Legend:
[1] = biological target: T1, IGF2BP3 (recombinant GST fusion) (UniProt O00425 1-579); experiment: pull-down; EMSA: 10 mM HEPES pH 7.3, 20 mM KCl, 1 mM MgCl2, 1 mM DTT; competition: 150 mM NaCl, 20 mM Tris-HCl pH 7.5, 1.5 mM MgCl2, 1 mM DTT, 10% glycerol, 4 °C; pull-down at 4 °C, wash 20 mM Tris-HCl pH 7.5, 1 mM EDTA, 450 mM NaCl; settings: protein: recombinant; tags: GST (pGEX-6P-1); label: 3' biotin
[2] = biological target: T1, IGF2BP3 (recombinant GST fusion); experiment: competition; displaces biotin-circITGB6 (1 uM), protein 1 uM; EMSA: 10 mM HEPES pH 7.3, 20 mM KCl, 1 mM MgCl2, 1 mM DTT; competition: 150 mM NaCl, 20 mM Tris-HCl pH 7.5, 1.5 mM MgCl2, 1 mM DTT, 10% glycerol, 4 °C; pull-down at 4 °C, wash 20 mM Tris-HCl pH 7.5, 1 mM EDTA, 450 mM NaCl; settings: tags: GST (pGEX-6P-1)
[3] = biological target: T1, IGF2BP3 (recombinant GST fusion); experiment: competition; against biotin-circITGB6 (1 uM), protein 1 uM; EMSA: 10 mM HEPES pH 7.3, 20 mM KCl, 1 mM MgCl2, 1 mM DTT; competition: 150 mM NaCl, 20 mM Tris-HCl pH 7.5, 1.5 mM MgCl2, 1 mM DTT, 10% glycerol, 4 °C; pull-down at 4 °C, wash 20 mM Tris-HCl pH 7.5, 1 mM EDTA, 450 mM NaCl; settings: tags: GST (pGEX-6P-1)

T1 sequence (O00425 whole entry, the tested form may be a part): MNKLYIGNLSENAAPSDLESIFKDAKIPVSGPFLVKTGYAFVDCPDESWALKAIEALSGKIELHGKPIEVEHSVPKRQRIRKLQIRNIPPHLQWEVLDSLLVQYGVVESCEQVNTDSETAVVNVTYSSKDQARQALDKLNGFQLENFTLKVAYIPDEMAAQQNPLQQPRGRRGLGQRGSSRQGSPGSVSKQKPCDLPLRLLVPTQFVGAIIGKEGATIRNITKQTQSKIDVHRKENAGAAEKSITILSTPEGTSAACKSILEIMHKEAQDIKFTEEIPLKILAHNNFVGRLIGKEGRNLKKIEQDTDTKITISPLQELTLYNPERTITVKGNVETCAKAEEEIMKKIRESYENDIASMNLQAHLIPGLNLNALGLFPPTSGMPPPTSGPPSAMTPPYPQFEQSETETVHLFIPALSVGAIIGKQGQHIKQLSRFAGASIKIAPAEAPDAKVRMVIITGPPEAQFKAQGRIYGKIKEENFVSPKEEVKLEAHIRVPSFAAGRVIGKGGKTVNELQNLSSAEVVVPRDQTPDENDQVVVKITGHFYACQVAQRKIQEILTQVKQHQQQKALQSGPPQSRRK

B1: M1 (M1-WT) probe (ssRNA)
RNA: ACUCUAAACGGAGCUGCAUUGAGUGCCACC
[1]
  binding result: binds

B2: M1 competitor, unlabeled (ssRNA)
RNA: B1 RNA
[2]
  binding result: binds

B3: M2 competitor, unlabeled (ssRNA)
RNA: ACUAGCUGGUGCGACCAUCAGUGAAGAAGA
[3]
  binding result: no binding

— article PMC10613289, “A circular RNA activated by TGFβ promotes tumor metastasis through enhancing IGF2BP3-mediated PDPN mRNA stability”
